Laboratory results published in patent US7655420B2, “Methods to increase or decrease bone density” (Celltech R & D, Inc., priority 2002, dated 2010).
Entries after “also recorded” stand apart in the source; their conditions may differ.

Legend:
[1] = system: mineralization (calcium deposition) in hMSC cells; assay: mineralization (calcium deposition) in hMSC cells; format: cell-based, human; settings: for mineralization (calcium deposition), increasing concentrations: hMSC cells, Osteoblast-Inducing media, protein added at 8 days, another 13 days
Description: FIG. 12B illustrates that human sclerostin decreases mineralization (calcium deposition) in hMSC cells in a dose-dependent manner. hMSC cells were plated in Osteoblast-Inducing media. Partially-purified sclerostin protein or proteins purified from Sf9 conditioned media (control) were added the next day. Cultures were maintained for 8 days, treated with sclerostin or control proteins and maintained for another 13 days before testing for mineralization. As illustrated, increasing concentrations of sclerostin give rise to diminished mineralization.
(§1) hMSC cells were plated in 96-well tissue culture dishes at a density of 10,000 cells/cm^2 in Osteoblast-Inducing medium. Partially purified preparations of baculovirus-expressed sclerostin protein were prepared in sterile PBS using NAP-5 columns prior to use. Human sclerostin protein (0 to 30 μg/ml) or an equal volume of Sf9 conditioned media (Control) was added to cultures of hMSC cells at various times after plating (1 day, 8 days, 15 days, or 21 days). The effects of sclerostin on osteoblastic differentiation were assessed by measuring alkaline phosphatase activity (ALP, determined in cell layers using DEAA buffer (Pierce) containing 0.5% NP-40 and 10 mM p-nitrophenylphosphate), synthesis of collagen type I (Prolagen C ELISA), and calcium deposition for mineralization (colorimetric assay of acid lysates of cell layers, Sigma).

[2] = system: type I collagen synthesis in hMSC cells; assay: synthesis of collagen type I in hMSC cells (Prolagen C ELISA); format: cell-based, human
Description: FIG. 13 illustrates that partially purified preparations of human sclerostin reduce the synthesis of type I collagen by about 50% in cells treated with 10 μg/ml of sclerostin (p<0.001 to control). hMSC cells were cultured in Osteoblast-Inducing media and treated with partially-purified sclerostin protein or proteins purified from Sf9 conditioned media (Control) for 21 days. Sclerostin or Control at the indicated concentrations was added 8 days after plating.
as §1

[3] = system: osteoblastic markers; assay: RT-PCR of osteoblastic markers in differentiating hMSC cells treated with sclerostin; format: cell-based, human; settings: sclerostin 10 μg/ml, 40 hrs
Description: FIG. 14 illustrates that human sclerostin protein decreases expression of osteoblastic markers in cultures of differentiating hMSC cells. hMSC cells were plated in Osteoblast-Inducing media. After 3 days, partially purified sclerostin protein (10 μg/ml) or proteins purified from Sf9 conditioned media (control) were added. Cells were harvested after 40 hrs and RNA was prepared for RT-PCR analyses of osteoblastic markets.
To determine the effect of sclerostin protein on the expression of osteoblastic markers in cultures of differentiating hMSC cells, RNA was isolated after a 40-hr treatment and analyzed by RT-PCR (FIG. 14).

[4] = system: BMP-6 stimulated alkaline phosphatase activity; assay: BMP-6 stimulated alkaline phosphatase activity in mouse mesenchymal C3H10T1/2 cells; format: cell-based
Description: C3H10T1/2 cells (ATCC Deposit No. CCL-226) were plated in 96-well dishes at a density of 25,000 cells per well in complete growth medium (DMEM with high glucose and glutamine supplemented with 10% FCS, 1% penicillin/streptomycin, 0.1 mM non-essential amino acids, 1 mM sodium pyruvate, 55 μM β-mercaptoethanol, and 20 mM HEPES, pH 7.3). C3H10T1/2 cells were used in a short-term (72 hr) assay to determine the effects of human sclerostin protein on BMP-induced ALP activity. Partially purified preparations of bacculovirus-expressed sclerostin protein were prepared in sterile PBS using NAP-5 columns prior to use. Sclerostin protein (0 to 50 μg/ml) or an equal volume of Sf9 conditioned media (control) was pre-incubated with 500 ng/ml BMP-6 for 1 hr prior to addition to cells. For comparison, similar incubations were carried out with anti-BMP-6 antibody and noggin. Cells were harvested 72 hrs later for determination of ALP activity.
To test the specificity of the sclerostin effect, human sclerostin that was synthesized with a FLAG tag, was pre-incubated for 2 hrs at 4° C. with an anti-FLAG antibody coupled to agarose beads. The mixture was then spun down at 10,000×g for 15 minutes at 4° C. and the supernatant treated as “sclerostin protein” in the above assay.

[5] = system: hMSC cells; assay: CellTiterGlo viability assay of hMSC cells; format: cell-based, human; settings: Osteoblast-Inducing media, increasing amounts of sclerostin, 1 week, versus control
Description: (§2) Human mesenchymal (hMSC) cells were plated in Osteoblast-inducing media (Biowhittaker's MSCGM medium supplemented with 100 nM dexamethasone, 50 μg/ml ascorbic acid, and 10 mM β-glycerophosphate) at a density of 10,000 cells/cm^2 in 96-well dishes.
For cell viability assays, cells were treated with a partially purified preparation of bacculovirus-expressed human sclerostin (0 to 20 μg/ml) or an equal volume of a protein preparation purified from Sf9 conditioned media (control) for 1 week. Sclerostin and control were refreshed upon media change. Cells were then lysed and processed using Promega's CellTiterGlo Luminescence Viability Assay.

[6] = system: caspase activity in hMSC cells; assay: apoptosis of hMSC cells by caspase activity (Homogeneous Caspase ELISA); format: cell-based, human; settings: for time after treatment for which caspase activity remained elevated: hMSC cells treated with sclerostin; for caspase activity: hMSC in osteoblast-inducing media, 20 μg/ml sclerostin or other protein, 24 hours
Description: as §2
(§3) For apoptosis assays, cells were treated with sclerostin or commercially available preparations of the BMP antagonists noggin, chordin, gremlin or twisted gastrulation (Tsg) for 24 hours prior to assay for caspase activity. In some experiments, cells were treated for various times with a partially purified preparation of baculovirus-expressed human sclerostin (0 to 30 μg/ml) or an equal volume of a protein preparation purified from Sf9 conditioned media (control) in the absence or presence of Calbiochem's caspase inhibitors. Cells were harvested and processed for apoptosis assays using the Homogeneous Caspase ELISA (Roche) or Cell Death (Histone-Associated DNA Fragmentation, Roche).

[7] = system: hMSC cells; assay: apoptosis of hMSC cells by histone-associated DNA fragmentation ELISA; format: cell-based, human; settings: increasing amounts of sclerostin, 24 hrs
Description: as §2, §3

[8] = system: hMSC cells; assay: apoptosis of hMSC cells by TUNEL staining; format: cell-based, human; settings: Sclerostin 20 μg/ml, 24 hrs
Description: as §2
For apoptosis determination by TUNEL staining, cells were treated for 24 hrs with a partially purified preparation of bacculovirus-expressed human sclerostin (20 μg/ml) or an equal volume of a protein preparation purified from Sf9 conditioned media (control). Cells were fixed with paraformaldehyde and processed using Roche's In Situ Cell Death Detection kit.

[9] = system: alkaline phosphatase (ALP) activity in hMSC cells; assay: alkaline phosphatase activity in differentiating hMSC cells; format: cell-based, human; settings: BMP-6 500 ng/ml plus increasing concentrations of sclerostin-Flag protein

B1: sclerostin: partially purified baculovirus-expressed human sclerostin protein, SOST gene product (SEQ ID NO:3); also made with a FLAG tag (protein, listed as Homo sapiens)
chain: MQLPLALCLVCLLVHTAFRVVEGQGWQAFKNDATEIIPELGEYPEPPPELENNKTMNRAENGGRPPHHPFETKDVSEYSCRELHFTRYVTDGPCRSAKPVTELVCSGQCGPARLLPNAIGRGKWWRPSGPDFRCIPDRYRAQRVQLLCPGGEAPRARKVRLVASCKCKRLTRFHNQSELKDFGTEAARPQKGRKPRPRARSAKANQAELENAY
modifications: optional FLAG tag
- decrease of mineral deposition ([1]; hMSC cells treated with about 10 to 15 μg/ml of the protein, p<0.001 to control): about 50%
- mineralization (calcium deposition), increasing concentrations ([1]; listed as Sclerostin): decreased
- mineralization (calcium deposition), increasing concentrations ([1]; listed as human sclerostin): decreases
- reduction of synthesis of type I collagen ([2]; hMSC cells, 10 μg/ml of sclerostin, 21 days, p<0.001 to control): about 50%
- synthesis of collagen type I, dose dependence ([2]; hMSC cultures): decreased in a dose-dependent manner
- RNA levels for osteoblast phenotypic markers PTHr, Type I collagen, BMP-2 and BMP-6 [3]: significantly reduced
- RNA levels of markers for adipocytes (PPARγ2) or undifferentiated mesenchymal cells (endoglin) [3]: not affected
- stimulatory effect of BMP-6 on alkaline phosphatase activity (antagonism) ([4]; 500 ng/ml BMP-6, 72 hrs): antagonized
- antagonism of BMP-6 after immuno-depletion with anti-Flag M2 antibody/agarose complex ([4]; Flag-tagged sclerostin preparation): completely abolished
- IC50, decrease of BMP-6 stimulated alkaline phosphatase activity ([4]; pre-incubated with 500 ng/ml BMP-6 for 1 hr, 72 hrs): 10 µg/mL
- viability of hMSC cells [5]: significantly reduced; also recorded: decreases the viability
- time after treatment for which caspase activity remained elevated ([6]; listed as Sclerostin): up to 72 hrs
- time after treatment for which caspase activity remained elevated ([6]; listed as human sclerostin): 72 h
- caspase activity, increasing amounts (dose-dependent) ([6]; hMSC cells, 24 hrs): significantly elevated; also recorded: increased caspase activity
- caspase activity [6]: significantly increased
- caspase activity ([6]; listed as Sclerostin): increased
- amounts of histone-DNA fragments [7]: significantly elevated; also recorded: greater amounts of histone-DNA fragments
- Tunel staining for apoptotic nuclei [8]: Increased staining for apoptotic nuclei
- Tunel staining for apoptotic nuclei ([8]; listed as human sclerostin): undergo apoptosis
- BMP-6 induced alkaline phosphatase activity [9]: reduced; also recorded: decreased
